# Source: the DeepSol protein solubility set
# Test: soluble on expression in E. coli; label from the status in PepcDB or PDB records
row,Sequence,soluble on expression in E. coli
1,MRMAAMHSGGKTIQLNAGHYQAKIVTVGAGLAELTHHGRHVVIPHKPEEIPMAHLGKVLIPWPNRVTNGCYSYNGKVFQLAVNDPVSQTAIHGLLAWRDWQINYQSATEASLTIFLPPSYGYPFALISEVIYRLDAASGLHVLIRTQNIGDESAPYGAGAHPYLTCNLQSIDSCVLTLPASEELPAGRDFSASCLLGETRLDHAVKTATTPAEWEVRLTSPTQNMSTFLRSTQPWLQIYTGEKLSRKGLAVEPMSCPPDAFNSGIALIHLAPKAIHQLHFSIGCD,not soluble
2,SLSLESLEWMAFDSFLLWRSEESIDARILLVEINQNDNYSLTSTISNSSFIGVIEKLQVYQPKVIGLEVDQHLLINSQEDKLAKIFQKYKNLIANEKILPLQVHSYLDLPNEQITFADQILDNDGKSRRSLLAINTSNGYKLSLAMELARIYLAEKNISLENSRLGKTKLPRFLPNSGGYIRADASGFQVLINFRSGNQRFRTLSGEDIKNGKFNPEWIRDRIVIIGITNTHNQGFIPTSAITSVKSASTQVNKLEIQAHAISQIISAVLDGRPLINTWNDG,soluble
3,GAMDIVVNDDLSCRFLEGFNTRDALCKKISMNTCDEGDPFFVADLGDIVRKHETWKKCLPRVTPFYAVKCNDDWRVLGTLAALGTGFDCASNTEIQRVRGIGVPPEKIIYANPCKQISHIRYARDSGVDVMTFDCVDELEKVAKTHPKAKMVLRISTDDSLARCRLSVKFGAKVEDCRFILEQAKKLNIDVTGVSFHVGSGSTDASTFAQAISDSRFVFDMGTELGFNMHILDIGGGFPGTRDAPLKFEEIAGVINNALEKHFPPDLKLTIVAEPGRYYVASAFTLAVNVIAKKVTPGVQTDVGAHAESNAQSFMYYVNDGVYGSFNCILYDHAVVRPLPQREPIPNEKLYPSSVWGPTCDGLDQIVERYYLPEMQVGEWLLFEDMGAYTVVGTSSFNGFQSPTIYYVVSGLPDHVVRELKSQKS,soluble
4,MVVVRLPKEIEERLTALARKTGRSKSYYVRQALLEYLDDLEDYYLAVERLEERLPGIPLDEVERRLGLSD,soluble
5,AHHHHHHGSKRRAVVLFSGGLDSTACLYWAKKQYDEVIMLTVNYGSNEERVTNKVAEYFSKELDVRLKIVKLDFLKEFSEIRGSSLVGGEVPRVTAEELEDIEKASETARSVWIPARNLVLISVAASLLDALGGGDIIVGFNAEEATTFPDNSREFVEKLNEALRFATLNPVKVVAPLIDLDKRGIAKLLKELNAKYEYSNSCYNPKGFTEDGRPIHCGECESCVRRHKGLIEGIGEDKTVYAITPRI,not soluble
6,MGSDKIHHHHHHMSILYEERLDGALPDVDRTSVLMALREHVPGLEILHTDEEIIPYECDGLSAYRTRPLLVVLPKQMEQVTAILAVCHRLRVPVVTRGAGTGLSGGALPLEKGVLLVMARFKEILDINPVGRRARVQPGVRNLAISQAVAPHNLYYAPDPSSQIACSIGGNVAENAGGVHCLKYGLTVHNLLKIEVQTLDGEALTLGSDALDSPGFDLLALFTGSEGMLGVTTEVTVKLLPKPPVARVLLASFDSVEKAGLAVGDIIANGIIPGGLEMMDNLSIRAAEDFIHAGYPVDAEAILLCELDGVESDVQEDCERVNDILLKAGATDVRLAQDEAERVRFWAGRKNAFPAVGRISPDYYCMDGTIPRRALPGVLEGIARLSQQYDLRVANVFHAGDGNMHPLILFDANEPGEFARAEELGGKILELCVEVGGSISGEHGIGREKINQMCAQFNSDEITTFHAVKAAFDPDGLLNPGKNIPTLHRCAEFGAMHVHHGHLPFPELERF,not soluble
7,MRKIHFTDKYLLSPYHPVTVLVAGAGGTGSQVITSLARMSVALQALGHPGLHLTAFDPDTVTEANIGRQLFSETELGLNKATALVTRVNRFFGYAWEARECRYPIITKEGDKSVPLANIIITCTDNTRSRLDLWRFLKKYREYKKNDEKAPIYWMDFGNAQTTGQVLIGNIRSKISQPASSEYLPMPRMNVITEEVSYSTIREEDSGPSCSLAEALRKQDLFINSMLAQIGCDILWCMFREGRTFYRGAYLNLDTLRVNPIPV,not soluble
8,DVLESTIKAQKSRALNRKNLNYKQLLNTFGSLIGLVFLKSYEQGERTYLGMLSRGYSKDSNIKTLGQK,not soluble
9,ELKDLQKDEKFWTESSQFKVSVPVGWDINHKEVCFEIGNEQNHTLICGRSGSGKSNFLHVLIQNLAFYYAPNEVQLFLLDYKEGVEFNAYTDPNILEHARLVSVASSVGYGMSFLNWLCKEMQERANLFKQFNVKDLSDYRKHGEIPRLIVVIDEFQVLFSDNKSTKAVEGHLNTLLKKGRSYGVHLILATQTMRGTDINRSIMAQIANRIALSMDAEDSNSILGDDAACELVRPEGIFNNNGGHQKHHTKMSIPKAP,not soluble
10,MAKSPVEVNLIPIEATPENFAEYGQVIEASRDGAGFGPHDAQLDLSRGTPRLYILRLKETPLGFFKITHHAKVTQCLGSIGGDVWYMGVAKPSLIEDDDDDGRSVDTVKSKSGHLYIPPEVEEIRVFRFSGPKFVKLHRGTWHAGPLFSGSSFMDFYNLELSNTNVSEEWF,soluble
11,MRTMVFPGSAPAYPIRYPSTMQETDSGAGPRTLRRGLMVLAALRDQGPRGLSVTDIARQTGIQRPTIYRLLAALLDAGLVVPLQGTKKYRTQLAADADLAAPDPRVRQMLPVLRRLADRTGDAVFLVVRDGDDSVSLHREIGSYPVQILATYAGKRQPLGVGSGGMALLAALPDEIAHAIVQRNSGRLDEYGGMTPQEMHRLIENTRARGYSVVGNHAVRGALGVGCALLDAQGAPVLAVSVTAIIDRMPAQRQREIAGWIGAELARLAPKA,not soluble
12,MAQEVIKIRGGRTLNGEVNISGAKNSAVAIIPATLLAQGHVKLEGLPQISDVKTLVSLLEDLNIKASLNGTELEVDTTEIQNAALPNNKVESLRASYYMMGAMLGRFKKCVIGLPGGCPLGPRPIDQHIKGFKALGAEIDESSTTSMKIEAKELKGAHIFLDMVSVGATINIMLAAVYATGQTVIENAAKEPEVVDVANFLTSMGANIKGAGTSTIKINGVKELHGSEYQVIPDRIEAGTYMCIAAACGENVILNNIVPKHVETLTAKFSELGVNVDVRDERIRINNNAPYQFVDIKTLVYPGFATDLQQPITPLLFMANGPSFVTDTIYPERFKHVEELKRMGANIEVDEGTATIKPSTLHGAEVYASDLRAGACLIIAGLIAEGVTTIYNVKHIYRGYTDIVEHLKALGADIWTETV,not soluble
13,MGSDKIHHHHHHMENRKHTSLKDLAQALGVSIPTVSRALKDSPEISRELCAKAKKLAKEMNYRPNPFAMSLRKNAPRIIGVIVPDIVTHFFASILNGIENMAIDNGYFVIITTSHESFEHEKRNIENLVNMRVEGIIACLSQETTDFSHFAALKEINMPLILFDRVCLTDQFSSVIADGAQSAQMATQHLLDNGSKRVAFIGGANHLDIVKRRKHGYLEALRDNRIPIEKELVVCRKIDYEEGQIATETLLSLPQPPDAILAMNDTLAFAAMEVIKRHGLRIPDDIAIIGYTDEQHANYVEPKLSAVSHQTYKMGETACQLLIDQIKGDRTVKQVVIPTHLQIRESSIKENNKKNAVST,not soluble
14,MGLIMAKLFQSWWIGKKYKIIVVGLDNAGKTTILYNYVTKDQVETKPTIGSNVEEVSYRNLDFVIWDIGGQESLRKSWSTYYVQTDVVIVVIDSSDTTRIPIMKEQLHNMLQHEDLARAHILVLANKQDLPGAMNPAEVSTQLGLQTLRGARKWQINGCCAVKGEGLPEALEWIANNL,not soluble
15,MGSDKIHHHHHHMIRNLTPSDFAQVISLGEQVHGANYLDLDTLKHYYQLGIKDGINAHFVAEQAGEIIGFRLTFTANQWTLDEWCSPALWGVEIDKVCYFKSNTLAEKARGQGIGGDLLAQSIAAVKAQGAKAGVSHLWKQSPHNAAVRYFTKAGGRLIKEHPGRWNQANDGSDYLCVLCGNDCHCTACEMLINF,not soluble
16,MAHHHHHHMLHTTRLWLGGYMMYHRKAMGTMKYSKWKGAHGGISHFYGRTPMVEEVRPNEPITLVDRRIMHYVHHSRLRHFQLFRSYQEKSNSTECKLREGEMLRRRWHRRLQKSFIAFMQFKTMKVLEDQARLVNTYGQAAVNAALGDPWNATDNVARERKSAAVRRQVRALPMVNVVPKHVATMKQIHNDRFNYRWRVN,not soluble
17,MVEVKNLVAITGPKMPYELARLLKISHARATRLAAAANAQNPTPSRARTSDAQAQQPAAASPKPPAEPVAAEPKKKRAKKATPVEAGLPPLTGKITGGHACAFDVVGESYYQPALRRLRNGRHMATDNDFVADIVAEPDNPHDPNACAVYIEGFKVGYLPRDAAADFQQQVADMGVTGTWRLQTKAKLSGGWGDRPMVGVLLSLPKSLEHHHHHH,soluble
